According to PMC3376577, “A Reusable Impedimetric Aptasensor for Detection of Thrombin Employing a Graphite-Epoxy Composite Electrode”:

Assays:
serum albumin = serum albumin (UniProt P02768 25-609); experiment: electrochemical impedance spectroscopy; albumin 5,000 mg/dL; Rct did not increase (slight decrease); PBS (187 mM NaCl, 2.7 mM KCl, 8.1 mM Na2HPO4, 1.76 mM KH2PO4, pH 7.0), room temperature; aptamer 1 uM adsorbed on graphite-epoxy electrode, PEG blocking; conditions: G-quadruplex (quadriplex)
thrombin = thrombin (UniProt P00734;P00734 328-363;364-622); experiment: electrochemical impedance spectroscopy; linear response 7.5-75 pM, detection limit 4.5 pM; PEG-blocked electrode, [Fe(CN)6]3-/4- probe; complex broken by 2.0 M NaCl at 42 C; PBS (187 mM NaCl, 2.7 mM KCl, 8.1 mM Na2HPO4, 1.76 mM KH2PO4, pH 7.0), room temperature; aptamer 1 uM adsorbed on graphite-epoxy electrode, PEG blocking

Chain of serum albumin (P02768 25-609): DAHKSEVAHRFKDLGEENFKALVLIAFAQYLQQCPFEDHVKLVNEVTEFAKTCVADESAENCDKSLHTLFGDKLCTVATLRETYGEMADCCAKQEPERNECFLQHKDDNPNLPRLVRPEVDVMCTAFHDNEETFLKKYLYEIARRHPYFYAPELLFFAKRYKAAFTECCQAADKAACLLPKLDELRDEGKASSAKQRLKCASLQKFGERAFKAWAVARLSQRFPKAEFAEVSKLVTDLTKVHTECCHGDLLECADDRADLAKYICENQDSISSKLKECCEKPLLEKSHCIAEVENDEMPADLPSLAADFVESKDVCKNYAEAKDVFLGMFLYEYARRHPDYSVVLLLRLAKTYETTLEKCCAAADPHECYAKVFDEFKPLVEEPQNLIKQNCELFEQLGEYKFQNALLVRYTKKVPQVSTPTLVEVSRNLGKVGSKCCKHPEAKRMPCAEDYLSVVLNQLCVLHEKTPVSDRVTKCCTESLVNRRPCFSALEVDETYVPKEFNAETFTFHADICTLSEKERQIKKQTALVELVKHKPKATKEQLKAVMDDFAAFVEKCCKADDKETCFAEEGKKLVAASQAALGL

GGTTGGTGTGGTTGG (structured_DNA) [AptThr]: no binding (serum albumin); binds (thrombin).
